Measured values published in publication PMC4258057.

Legend:
[1] = target: T1, BldD (Saccharopolyspora erythraea A226?) (UniProt A4FBF9); assay: EMSA; details: 10 mM Tris pH 7.5, 5 mM MgCl2, 50 mM EDTA (so in the source), 60 mM KCl, 10 mM DTT, 10% glycerol, 150 ng probe (legend: 10 ng), 0.5-4 uM protein; on ice 10 min; 8% …
T1 sequence: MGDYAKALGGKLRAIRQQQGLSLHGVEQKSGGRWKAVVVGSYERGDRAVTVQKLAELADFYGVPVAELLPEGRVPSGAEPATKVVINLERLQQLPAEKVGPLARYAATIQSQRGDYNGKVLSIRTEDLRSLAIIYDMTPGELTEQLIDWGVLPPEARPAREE

[2] = target: T2, SACE_7301 (Saccharopolyspora erythraea A226?) (UniProt A4FQY4); assay: EMSA; details: 10 mM Tris pH 7.5, 5 mM MgCl2, 50 mM EDTA (so in the source), 60 mM KCl, 10 mM DTT, 10% glycerol, 150 ng probe (legend: 10 ng), 0.5-4 uM protein; on ice 10 min; 8% …
T2 sequence: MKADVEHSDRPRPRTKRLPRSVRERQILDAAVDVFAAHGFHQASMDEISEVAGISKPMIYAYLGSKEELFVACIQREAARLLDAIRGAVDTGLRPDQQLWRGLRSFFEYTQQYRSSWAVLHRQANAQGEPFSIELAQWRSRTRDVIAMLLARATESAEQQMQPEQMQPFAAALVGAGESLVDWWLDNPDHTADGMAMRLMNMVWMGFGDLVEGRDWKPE

Sequence	binding [1]	binding [2]
GCGAGTGTCCGTTCGAGTGGCGGCTTGCGCCCGATGCTAGTCGCGGTTGATCGGCGATCGCAGGTGCACGCGGTCGATCTTGACGGCTGGCGAGAGGTGCGGGGAGGATCTGACCGACGCGGTCCACACGTGGCACCGCGATGCTGTTGTGGGCTGGACAATCGTGCCGGTTGGTAGGATCCAGCG (double strand) [PermE promoter fragment]	binds	binds
GCGTCCCCCTACTCGACGACCACGCAATGGGCGAACAATATAGGAAGGATCAAGAGGTTGACATCGCCTCGTCGAGCCAACGAACCTGTGAACATCTGCATGTTGACAAGATCAACGGCGGCTACCTACTGTGGTGGCCCAGTGACGGGTTGCCGCACATCGCGCTGGGGAGATTCTTTGAATTTCGCCCGTAGCACCGACCTGGAAAGCGAGCAAATGCTCCG (double strand) [PeryAI promoter fragment]	binds	binds
